# Experimental data as given in patent US11491212.
# B1: FIXa K228N/K247N/N249S/R318Y/T343R/R403E/E410N (protein)
# chain 1: not shown
# chain 2: not shown
# B2: FIXa-Y155F/K228N/R318Y/R338E/R403E/E410N (protein)
# chain 1: not shown
# chain 2: not shown
# B3: FIXa-I251S/R318Y/R338E/E410N (protein)
# chain 1: not shown
# chain 2: not shown
# B4: FIXa-Y155F/K247N/N249S/R318Y/R338E/R403E/E410N (protein)
# chain 1: not shown
# chain 2: not shown
# B5: FIXa-D104N/K106S/Y155F/K247N/N249S/R318Y/R338E/R403E/E410N (protein)
# chain 1: not shown
# chain 2: not shown
# B6: FIXa-Y155F/K247N/N249S/R318Y/R338E/E410N (protein)
# chain 1: not shown
# chain 2: not shown
# B7: FIXa-R318Y/R338E/R403E/E410S (protein)
# chain 1: not shown
# chain 2: not shown
# B8: FIXa-K228N/K247N/N249S/R318Y/R338E/R403E/E410N (protein)
# chain 1: not shown
# chain 2: not shown
# B9: FIXa-D104N/K106S/K228N/K247N/N249S/R318Y/R338E/R403E/E410N (protein)
# chain 1: not shown
# chain 2: not shown
# B10: FIXa-R318Y/R338E/R403E/E410N/T412V (protein)
# chain 1: not shown
# chain 2: not shown
# B11: FIXa-R318Y/R338E/R403E/E410N/T412A (protein)
# chain 1: not shown
# chain 2: not shown
# B12: FIXa-R318Y/R338E/E410N/T412V (protein)
# chain 1: not shown
# chain 2: not shown
# Chain of Factor X (FX), P00742 (P00742 whole entry, looked up): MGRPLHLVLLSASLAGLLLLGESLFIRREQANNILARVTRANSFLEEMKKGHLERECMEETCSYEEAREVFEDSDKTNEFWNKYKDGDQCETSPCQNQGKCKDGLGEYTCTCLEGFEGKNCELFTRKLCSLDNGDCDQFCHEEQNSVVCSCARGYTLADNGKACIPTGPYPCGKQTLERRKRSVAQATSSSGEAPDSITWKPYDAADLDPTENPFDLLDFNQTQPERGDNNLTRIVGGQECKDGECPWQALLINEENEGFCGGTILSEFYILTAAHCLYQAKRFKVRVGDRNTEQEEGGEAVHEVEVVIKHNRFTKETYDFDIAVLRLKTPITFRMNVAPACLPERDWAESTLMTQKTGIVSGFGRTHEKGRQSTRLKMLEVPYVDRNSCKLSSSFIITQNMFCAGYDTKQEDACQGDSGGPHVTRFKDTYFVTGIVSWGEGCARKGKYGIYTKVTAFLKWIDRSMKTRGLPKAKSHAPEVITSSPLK
# Chain of Factor X, P00742 (P00742 whole entry, looked up): as above
Protein,"kcat (s^-1), activation of FX by FIXa in the Xase complex (Factor X (FX), P00742) [s⁻¹]","% of WT kcat/KM (Factor X, P00742) [%]","kcat/KM (Factor X, P00742) [M⁻¹ s⁻¹]","% of WT kcat/KM (against Catalyst Biosciences WT FIXa) (Factor X (FX), P00742) [%]","KM (Factor X (FX), P00742) [µM]","kcat/KM for activation of FX by FIXa in the Xase complex (FVIIIa, PC/PS vesicles, Ca2+), fluorogenic Spectrafluor FXa read-out (Factor X (FX), P00742) [M⁻¹ s⁻¹]","kcat (Factor X, P00742) [s⁻¹]","kcat (Factor X (FX), P00742) [s⁻¹]","% of WT kcat/KM (against Catalyst Biosciences WT FIXa), FX activation in the Xase complex (Factor X (FX), P00742) [%]","kcat/KM for FX activation by FIXa in the Xase complex (FVIIIa, PC/PS vesicles, Ca2+), indirect fluorogenic Spectrafluor FXa assay (Factor X (FX), P00742) [M⁻¹ s⁻¹]"
B1,8.1,153,7.1e+07,–,–,–,–,–,–,–
B2,–,–,–,356,0.0408,1.6e+08,6.7,–,–,–
B3,–,–,–,849,0.0161,3.9e+08,6.4,–,–,–
B4,–,–,–,405,0.0363,1.9e+08,6.2,–,–,–
B5,–,–,–,292,0.0518,1.3e+08,6.9,–,–,–
B6,–,–,–,717,0.0147,3.3e+08,4.5,–,–,–
B7,–,–,–,458,0.0364,2.1e+08,7.4,–,–,–
B8,–,–,–,352,0.0497,1.6e+08,7.1,–,–,–
B9,–,–,1.1e+08,–,0.0533,–,6.1,–,–,–
B10,–,–,1.6e+08,–,0.0483,–,–,7,–,–
B11,–,–,2.5e+08,–,0.0344,–,–,7.8,–,–
B12,–,–,2.6e+08,–,0.0236,–,–,5.2,536,2.4e+08
